Measured values: a protein production outcome set (Wang et al. 2014)

Test: label from the status in PepcDB records

Sequence | protein production
MLKLFKGIYAIFLCVRECIINLFFILFLLTGFASIAFLVNGSDTNKSKEPNEKVALRLNLSGYLTDNHDDFAHRLIQSELTNDESLKASTFDVVRAIGKAAKDPNITGIVLDLSKFEGSDHSSLSFIGSELKAFKTSGKPVIAIGENYSQSQYYLASFADKIYLNKAGSINLQGLNFSSLYFKALLDKIDAVPHIFRVGTYKSAVEPFLRNDMSDEAKQNAQTLLNSIWHQFRTDIAENRMIAVDQVLPEPKSLIEKYKAVNANDAQYALNQKLVTDIGSKAEIEQALIEQFGKNEKGIYQHINYADYALNLTDRFAVNAEHKIAVINVEGEIISGKSKERSAGSETISELLRQAREDNNVDGVILRVNSPGGSVVASEIILQELQSIQQAGKPVVTSMGGLAASGGYWISATSDKIIASPNTITGSIGIFGLAMTFEKTAKHLGISEDGVATSPLAKTSSLQHLSNEHAELIQINIENGYDAFLDLVSRGRNMSKAEVDKVAQGQVWSGEDALKHGLVDQLGDFHTAYDVLTDLINQKRKAKGENEIKHFTAQWFIESDKGLFSSLLKNIGFKAKSTLAVWLGLPFVPQTQQAAELLQKFNDPQNTYLYCLTCGTIK | failed
MLKLNLKKSFQKDFDKLLLNGFDDSVLNEVILTLRKKEPLDPQFQDHALKGKWKPFRECHIKPDVLLVYLVKDDELILLRLGSHSELF | failed
MLKPVALLTPRPSPSRDPAIPDWLLAGKLEPALPRPAAVVRGALLAALDQAQARPLTLLLAPPGFGKTTLLAQWHAHLSTREQGPVAWLSLDEEDADAARFLGHLALALQNAGADHALCATVLHNRDHDPRDATALLIRALRAAPRRISVILDDYDRLGSSPVDELVLRLIEHSGGRLHLVLATRRVPNLPLARLDLHAQLSRIGSTQLALDNTEAQALLGPHVPTPVVDELRNYTEGWPVALQLARLWLQGDTQRQQEVAARFSGRSAQIAAYLAEQVVNDLDPDTRELLLRTSPLERFNAALADAVRQREDSGRLLARLEHFHGLLVPLDGEREWFRYHPLFADFLQQLLDREHPGQSVQLHQRAARWFGDHQHLAEAVRHAWRGNCGELAASYIARAGTWQLLLTHGTHEVRALLRHFDHRTIRDTPALNLTQAHLHIRLGEFSHARLLLERFRDFPAALREPLQRDYTVVVALLRDRLDEICGNPHGLTQIAAQAGALDEDDHLGRGMLLCICATTAIAQGAFAVAERYARNARDTMQRGGSDVGASQAMLSLGQSLFYRGRLSDAEACYQQALSWCARTPQLDRVLEAAAQCLLAQSHYERGHHDDAADLLHPALELLEQHDGGMDVLAAGYGTALGLERVRDHSGRSALLLLEHIEQIAHGRKLARLSELAAAWRLMLLLEHPGNAAIDVLIARTGGESGLAHTLRSPHRWHDRAAMGFALARWHRLAGRSSAALSILGQIEQACLANDNVCHLARTRARIALVLQQRGELVAALPYLYSALDHVALTQSWQAIVELGLPAKAMLRSLRQHDPQTVGGTTRALTIQALLERLSGDDDPAGDIFSERELEVLAQLARGYSNKQIARCLHLSENTVKFHLKNLYRKLDARSREGALAQALQRGLLRGSNQHADQPLQPD | failed
MLKQEKIYLVEDDTTIVNLLKNHLGQHYQVKSVDNFRAILQEVKEFKPDLILMDITLPYFNGFYWTTEIRKSMTMPIIFISSADEEMNAVMAMNMGGDDFLSKPFSLPILDAKIAAFLRRANEFTKQGHQIEEFELTLDGVFSNLERQETIQLTPTETKILSLLIDYKGEVVTKEALLNRLWEGEEFIDQNTLSVNMTRLRKKVLSVSFDKIHTVRGVGYLIK | failed
MLKRCLSPLTLVNQVALIVLLSTAIGLAGMAVSGWLVQGVQGSAHAINKAGSLRMQSYRLLAAVPLSEKDKPLIKEMEQTAFSAELTRAAERDGQLAQLQGLQDYWRNELIPALMRAQNRETVSADVSQFVAGLDQLVSGFDRTTEMRIETVVLVHRVMAVFMALLLVFTIIWLRARLLQPWRQLLAMASAVSHRDFTQRANISGRNEMAMLGTALNNMSAELAESYAVLEQRVQEKTAGLEHKNQILSFLWQANRRLHSRAPLCERLSPVLNGLQNLTLLRDIELRVYDTDDEENHQEFTCQPDMTCDDKGCQLCPRGVLPVGDRGTTLKWRLADSHTQYGILLATLPQGRHLSHDQQQLVDTLVEQLTATLALDRHQERQQQLIVMEERATIARELHDSIAQSLSCMKMQVSCLQMQGDALPESSRELLSQIRNELNASWAQLRELLTTFRLQLTEPGLRPALEASCEEYSAKFGFPVKLDYQLPPRLVPSHQAIHLLQIAREALSNALKHSQASEVVVTVAQNDNQVKLTVQDNGCGVPENAIRSNHYGMIIMRDRAQSLRGDCRVRRRESGGTEVVVTFIPEKTFTDVQGDTHE | failed
MLKSIRYLLTIIICLFVGACQHTQDNEEPNSIRKVNLSKAASFNVQLGLGYLKQGDRPRAKKKLLTALEQQPDSADVNAALAYYFEQTKELEQAKKFYHKAITLSQNGGAQLNNYGAFLCRQGDYKNAETYFLKAVKDQNYVHTSGAYENAGLCAMAIPDHDKAILYFTKALNQDPSRKESLYELVKLQSKIGHDKEALELLQKHADLVLNDKVMLALAKDIANRTGQYTLAAEYENSFNKLEQTNNISGVNDEYNSSNG | failed
MLKVLIQTLILGVLLGASAARAELPADYKVVLLTENFPPFNMAVDDKNFARDDGIDGISADIVREMFRRAGIGYSLSLRFPWDRLYRLTLDKPGYGLFSMTYTPERVPQFKWVGPLADTSWVLLAPAGSKIAVKNLKDAARYKLGAYKNDAVSQHLEAQGIPVINALRDQENVKKLTGGQIDLWATTDPVGRYLAKQEGVSGLQTVLRFNEAKLYLALNKDTPDEVVERLQKALEQMRQEGFVDEAVANYL | failed
MLLAYSMKVVYHLFSGGKDSSLAAWILKKLGYEVKLITITFGVLDNWKFARETAEILGFDHEVIEMPIGILEKATEMCIKEGRAGNAIQYIHERALEYIASREEVKRISDGTRRDDRVPFLDLSKARSLEDRYNVAYIRPLLGLGYKTIRELVNEIFVVVEDESEKVQKGDYETELRELIRRKGHDPSQIFPKRHVQSRVVGLR | not failed
MLLDVKFTKNTCTKLIGLWLKFFLFYSLLPFSTSAQEASFRFKRLGLEDGLSQISVNGIAQDVNGFIWFATQDGLNKYDGYQITTYRHQPSDPNSIINNHIHSIFKDSKHNLWIGSYGGLSKYEPKTDNFTHYNSPSLNDSDGKVGYIQSLFEDSDGELWLSSNMGLYRYSIDTNTYILYLPDDNKPNSVIHSEIKSIAEDSIGNIWIGTTIGVSKYNKRNNTFTNYQHSPENPHSLSNNFVLKIYKDSQNNLWFGTFGGGLDRYDNDTSKFVHHRTNTQNKNSLGNNYIRTILEDSAGMLWLGTNNGLYAFDSSKLIFQRFRHSVNDRHSLSHDVIYSLFQDKDGSLWAGTLGGGVNLFRPSTNVFKHYKSNPNNPESLNANMVYAIYDDDEYVWVGTSGGGLNKLNKTTGKFSNFTEPETSVGLGLNKVNYIIKASEAELWLSTNSDGLLKYNKNTGNITQYKHHPDDRNSLSNNRARGLAIDKEGNLWIGTAGGGLNKLDPISGQFTHFMPDTDNPNSISTNFIRCLLYDSKGRLWTGSYGQGLNRFDFDTQTFINFNKDSVKEPILSNKFIRSIFEDKSGNIWVLTNGGIIKYDESKGSFHSYTTTDGLPSNVVYGALEDQKNNLWLSTNNGLSKFNPQNITFENYTKEEGIQENEFNTGSFFKNKTGEMYFGGINGFTLFHPDKIKKDKTIPTVSFTNLLLYNDAIAIGESERFSSHISSTNALNFAHNDDVITFEFSALSYSQANNISYRYQLQGFSDNWIETDHNHRRATFTNLSKGDYILKVKASNRNRSWGEETTDLRITIAAAYWETTWFRGLLLAIGFIVFVIAIKWREKALNNQNLVLDIMVKERTKELESSQEYSNKLEKLVQKRTLNLQKANTALEQSSITDALTGIRNRRFLDQQLSSDWAIQSRNNLPLSILMIDIDYFKKYNDYYGHQQGDECLQKIAKEIQSVINRPTDNLCRYGGEEFVVITYNDAEGAKHIAKLILKKLDELALVHLTSDKGIVSVSIGLGTMVPSIEVAPARLLKYADDALYQAKNNGRDQLC | failed
MLLHLSDLHFGTEKPECLTAIEDFCRQHRPEVIVVSGDLTQRARFIQFYNCKQFLESLNVPYLVVPGNHDIPLYHLWNRFFSPFVRYQFFFGELEPTLETEHFFIVGVNSIRRRYHTRGYISLEQIQKTNEILKQAPSHKLKLVVLHQPFYTPPDQPHGIKDCPVLGRMALDNWSKSGLFGVLHGHLHKTAVYDLTQIYQLRVDESVYDIHAGTATSYRLYKNLPNSFNVILNDGRVEHYWFDPASKAFVLKTDLYEK | failed
MLLISKKSALAAASTTLFVLLWSSGAIFSKWGLAHASPFAFLLLRFVIALIGLMLLAPLLKLRLPRGRRAMGFAVATGLVLLGAYQIFYILALDLKVTPGVMATIMGVQPILTVVLMERQRSWSRLFGLSLGLAGLVMVVYQSIGLAGMSITGMLCGLLALVSMTAGSIMQKRITDNPLGTLPVQYLAGLLLCALFVPFQPFHFEHSAGFVIPLLWMGLVVSVLATLLLYRLIAQGNLVNVTSLFYLVPAVTALMDYLFFGNRLGLLSLVGMGLIIVGLVFVFRKQP | not failed
MLLITPDELKSYSVFESVKTRPDELLKQDILEATADIILKVGHDFSDAEYIPLPETVRLALLKLSQFYALINGDESIIKGYTTEKIGDYSYTLGDGSPLQKPDVYALIKDYVKPADPDLEGIEAKVRMRSILEHHHHHH | not failed
MLLKPDQRLKLDDTDDNLFYAYPRFVTHVDEGFIQRLTDLYRERLQPNTRILDMMSSWVSHLPEEIKFAHVEGHGLNAEELKRNPRLNHYFVQNLNENPGLPLPDQEFDAVLNCVSVQYLQYPEAVFSEIHRILKPGGVAIISFSNRMFYQKAIQAWRDASEPGRLELVKRYFASVPGFSTPEIIARKSTAPNFLQWLGAPGGDPFYAAIAHRKLEHHHHHH | failed
MLLKSIIPCMVKAFKFRLYPTTAQAVQLNQHIGSCRFVYNWALDQKIKTYEQTGKSISRFDLNKLIPTLKASNEWLGEVNSQSLQGMTKQVESAFTRFFRGKTGFPKFKSKKNPIQSFPVPQHYSVDFEKNTIKLPKIEPIKAVFHRKFEGELKTATVSRTCKGHYYISILVEDGKELPVKEAFAESTTIGIDVGIKDFAVLSNGEKIENPKYLKNSLKRLKVLQKRVSKKQKGSKNRAKAKQRLAVLHDKITNQRNDFQNKLSFKLISENQAVALETLNVKGMVKNHHLAQSISDSAWSSFVTKLEYKAEWFGKTILRIGQFEPSSKLCSVCGYHNKELQLKDREWTCPDCKTKHDRDINAAINIKKFALVDQNLIGLLEHHHHHH | not failed
MLLRSPSYAGKAAQAQEGDAYGVYQLATLLIGMDAEDETSCLLAADALYRLGRLDDAHKSLLVALSQRPQAAPVLVRLALLQLRRGFCYDANQLVKKVAQSGDTACLQHMLDIFHHEDLQLLQDHCHTRALSILRARPGGSDSEAHTREAIAYLSLAIFAAGSGGSESLLVRARCYGLLGQKKTAMFDFNAILREEPGNVKALCGRALVHLALDQLQEAVDDMVSALKLDPGTVTPEILSLKTEVQLPLTQGLYTRCRVLLNQCLHTGVPLREEDTQGLLATGKALIRINATQPSWRLLLTDILTGLGKYQEAGTHLQEALHLTPSSEAAQARQGLLQLKKGDVSAAAHGLQCLAERDTQDLGFLLRLLDSPERQSLVQTAAKEASNILDLGNPGQALSYCSLAILAGGNNPYHLRLRVACLTQLREYDRALRDLDRVLQHPAEDSDLPRRSEDFCTRGRLLLSLGDKDGAAGAFTQALALAPAQAQNSLLEQPGQAMTASVFLIHGQRCLEEQHFEEAWTAVQNGLLVDPSHSGLKKLKLRTRKVATSGCRLH | failed
MLLSHIMGMDYIMSIITLALLLLAEILVAIILIGVSIEICSYGWKKSNGIKYSCLLLSLLLGTASILGLLAAPAYFFIQLTEKAL | failed
MLLSVIITAQGRKGYVMQAVRSVLSQNIPKEDFEIIVSKDFKDDVIDEFLDGRAIVLNENHIRSGSRVASAVLQSSGKILVFLDDDDLFYPGKLREVKIVFSEMGVDYFKNSVKPVAESGDTVSYYQPAIKSDIFVKEPNEQDIRKLLKLRAGFNSSSISLKKDILVGYLDVLSKINLAVDSFYFFLYMSHSRPIYYSKKTLSLYRVLSKSTSRDVRNINAYAEFKSKFYELYSRDFETISEMASDGPCSKLAKTEFHLQMAYKWIFNTYRKEERPRMLHTLASSIYSHDPFIALPWPSFMKKIVQRREYFREKKLLSENTELEHHHHHH | failed
